The labels stand for the following.
B1: NYNRIN peptide 1030-1045 (Protein NYNRIN), 16-mer library wild type / NSP3 UBl1 (ORF1ab Nsp3a Ub1, residues 819-925) (parent)
chain 1: EAPSLSEEILRALSLH
chain 2: APTKVTFGDDTVIEVQGYKSVNITFELDERIDKVLNEKCSAYTVELGTEVNEFACVVADAVIKTLQPVSELLTPLGIDLDEWSMATYYLFDESGEFKLASHMYCSFY
B2: NCOA2 peptide 1073-1088 (Nuclear receptor coactivator 2), 16-mer library wild type / NSP3 UBl1 (ORF1ab Nsp3a Ub1, residues 819-925) (parent)
chain 1: PSDEGALLDQLYLALR
chain 2: B1 chain 2
B3: TET3 peptide 458-473 (Methylcytosine dioxygenase TET3), 16-mer library wild type / NSP3 SUD-M (ORF1ab Nsp3c SUD-M, residues 1356-1493) (parent)
chain 1: DPMAELEQLLGSASDY
chain 2: LPSIISNEKQEILGTVSWNLREMLAHAEETRKLMPVCVETKAIVSTIQRKYKGIKIQEGVVDYGARFYFYTSKTTVASLINTLNDLNETLVTMPLGYVTHGLNLEEAARYMRSLKVPATVSVSSPDAVTAYNGYLTSS

The values that follow come from paper PMC12102759.

In the first assay the parent is B1. As to conditions: with NSP3 UBl1 (ORF1ab Nsp3a Ub1, residues 819-925); bait immobilised on MaxiSorp plates (10 µg), library pre-cleared on GST, 2 h binding at 4 °C, five washes; one round per day, days 1-4; value from days 2 and 3; keep out of graded; scale: average fractional NGS count over selection days 2 and 3.
For chain 1 EAPSLSEEILRALSWH [chain 1 L15W], the screen value came to 0.

For the variant chain 1 EAPSNSEEILRALSLH [chain 1 L5N], the screen value was found to be 0.

Regarding chain 1 EAPSGSEEILRALSLH [chain 1 L5G], the screen value stood at 0.

For the variant chain 1 EAPSHSEEILRALSLH [chain 1 L5H], the screen value amounted to 0.

As to chain 1 EAPSLSEEILRARSLH [chain 1 L13R], the screen value is 0.

chain 1 EAPSLSEEILRAVSLH [chain 1 L13V]: the screen value was determined as 0.

For the variant chain 1 EAPSLSEEILRAHSLH [chain 1 L13H], the screen value worked out at 0.

Consider chain 1 EAPSLSEEILRAMSLH [chain 1 L13M], for which the screen value is 0.

On to chain 1 EAPSLSEEILRAFSLH [chain 1 L13F], for which the screen value stood at 0.

Consider chain 1 EAPMLSEEILRALSLH [chain 1 S4M], for which the screen value worked out at 0.

As for chain 1 EAPVLSEEILRALSLH [chain 1 S4V], the screen value amounted to 0.

For chain 1 EAPSLSENILRALSLH [chain 1 E8N], the screen value was found to be 0.

For chain 1 EAPSLSEPILRALSLH [chain 1 E8P], the screen value was found to be 0.

For chain 1 ESPSLSEEILRALSLH [chain 1 A2S], the screen value was 0.

chain 1 EAPSLSEEIDRALSLH [chain 1 L10D]: the screen value came out at 0.

For chain 1 EAPSLSEEALRALSLH [chain 1 I9A], the screen value stood at 0.

For chain 1 EAPSLSEEELRALSLH [chain 1 I9E], the screen value is 0.

Consider chain 1 EAPSLSEEILLALSLH [chain 1 R11L], for which the screen value is 0.

Regarding chain 1 EAPSLSEEILPALSLH [chain 1 R11P], the screen value came to 0.

Turning to chain 1 EAPSLSEEILVALSLH [chain 1 R11V], the screen value was found to be 0.

In the next assay the parent is B2. The following applies: with NSP3 UBl1 (ORF1ab Nsp3a Ub1, residues 819-925); bait immobilised on MaxiSorp plates (10 µg), library pre-cleared on GST, 2 h binding at 4 °C, five washes; one round per day, days 1-4; value from days 2 and 3; keep out of graded; scale: average fractional NGS count over selection days 2 and 3.
Take chain 1 PSDEGALLDQLYSALR [chain 1 L13S]: the screen value worked out at 0.

Regarding chain 1 PSDEGALLDQLYEALR [chain 1 L13E], the screen value worked out at 0.

Regarding chain 1 PSDEGALLDQLALALR [chain 1 Y12A], the screen value worked out at 0.

For chain 1 PSDEGALLDQLVLALR [chain 1 Y12V], the screen value came out at 0.

With chain 1 PSDEGALLDQLFLALR [chain 1 Y12F], the screen value was 0.000754.

For chain 1 PSDEGALLDQLSLALR [chain 1 Y12S], the screen value was found to be 0.

Take chain 1 PSDEGALLDQLYLDLR [chain 1 A14D]: the screen value stood at 0.

Regarding chain 1 PSDEGALLDQLYLYLR [chain 1 A14Y], the screen value turned out to be 0.

For chain 1 PSDEGALLDQLYLRLR [chain 1 A14R], the screen value was 6.24e-06.

As to chain 1 PSDEGALLDQLYLILR [chain 1 A14I], the screen value is 0.

chain 1 PSDEGALLDQLYLQLR [chain 1 A14Q]: the screen value worked out at 0.

As for chain 1 PSDEGALLDMLYLALR [chain 1 Q10M], the screen value was 3.19e-06.

For chain 1 PSDEGALLDALYLALR [chain 1 Q10A], the screen value amounted to 0.

Take chain 1 PSDEGALLDLLYLALR [chain 1 Q10L]: the screen value came out at 0.

For chain 1 PSDEGALLDWLYLALR [chain 1 Q10W], the screen value was determined as 0.

For chain 1 PSDEGALLDQVYLALR [chain 1 L11V], the screen value is 9.51e-06.

For chain 1 PSDEGALLDQAYLALR [chain 1 L11A], the screen value worked out at 0.

With chain 1 PSDEGALLDQDYLALR [chain 1 L11D], the screen value was 0.

In the case of chain 1 PSDEGALLDQYYLALR [chain 1 L11Y], the screen value was determined as 0.

Regarding chain 1 PSDEGALLDQIYLALR [chain 1 L11I], the screen value is 0.000119.

Take chain 1 PSDEGALLDQPYLALR [chain 1 L11P]: the screen value came out at 0.

Regarding chain 1 PSDEGALLDQRYLALR [chain 1 L11R], the screen value was determined as 0.

As for chain 1 PSDEGALLDQKYLALR [chain 1 L11K], the screen value was determined as 0.

For the variant chain 1 PSDEGMLLDQLYLALR [chain 1 A6M], the screen value stood at 1.23e-05.

With chain 1 PSDEGRLLDQLYLALR [chain 1 A6R], the screen value stood at 1.8e-05.

Consider chain 1 PSDEGLLLDQLYLALR [chain 1 A6L], for which the screen value was 2.33e-05.

Turning to chain 1 PSDEGFLLDQLYLALR [chain 1 A6F], the screen value worked out at 1.11e-05.

Regarding chain 1 PSDEGKLLDQLYLALR [chain 1 A6K], the screen value was found to be 0.

With chain 1 PVDEGALLDQLYLALR [chain 1 S2V], the screen value came out at 8.33e-06.

Take chain 1 PMDEGALLDQLYLALR [chain 1 S2M]: the screen value worked out at 8.73e-06.

On to chain 1 PGDEGALLDQLYLALR [chain 1 S2G], for which the screen value worked out at 1.09e-05.

With chain 1 PLDEGALLDQLYLALR [chain 1 S2L], the screen value is 1.56e-05.

Consider chain 1 PQDEGALLDQLYLALR [chain 1 S2Q], for which the screen value was 0.000342.

As to chain 1 PEDEGALLDQLYLALR [chain 1 S2E], the screen value is 0.

Consider chain 1 PHDEGALLDQLYLALR [chain 1 S2H], for which the screen value stood at 1.09e-05.

Take chain 1 PFDEGALLDQLYLALR [chain 1 S2F]: the screen value amounted to 4.76e-06.

In the case of chain 1 PIDEGALLDQLYLALR [chain 1 S2I], the screen value amounted to 0.

With chain 1 PADEGALLDQLYLALR [chain 1 S2A], the screen value was 1.93e-05.

Regarding chain 1 PSDEGALLDQLYLAIR [chain 1 L15I], the screen value was found to be 7.04e-06.

In the case of chain 1 PSDEGALLDQLYLANR [chain 1 L15N], the screen value was 0.

For the variant chain 1 PSDEGALLDQLYLALY [chain 1 R16Y], the screen value came out at 0.0506.

With chain 1 PSDEGALLDQLYLALI [chain 1 R16I], the screen value worked out at 1.03e-05.

With chain 1 PSDEGALLDQLYLALF [chain 1 R16F], the screen value turned out to be 0.000746.

Consider chain 1 PSDEGALLDQLYLALH [chain 1 R16H], for which the screen value is 0.000164.

For chain 1 PSDEGALLDQLYLALM [chain 1 R16M], the screen value came to 7.36e-05.

chain 1 PSDEGALLDQLYLALT [chain 1 R16T]: the screen value came out at 0.000892.

As to chain 1 PSDEGALLDQLYLALQ [chain 1 R16Q], the screen value was 0.00132.

As for chain 1 PSDEGALLDQLYLALS [chain 1 R16S], the screen value was determined as 4.51e-05.

Regarding chain 1 PSNEGALLDQLYLALR [chain 1 D3N], the screen value was determined as 1.14e-05.

In the case of chain 1 PSEEGALLDQLYLALR [chain 1 D3E], the screen value amounted to 7.04e-06.

For the variant chain 1 PSDEGALLPQLYLALR [chain 1 D9P], the screen value was 0.000642.

Regarding chain 1 PSDEGALLTQLYLALR [chain 1 D9T], the screen value is 7.34e-06.

As to chain 1 PSDEGALLSQLYLALR [chain 1 D9S], the screen value turned out to be 1.09e-05.

On to chain 1 PSDEGALLEQLYLALR [chain 1 D9E], for which the screen value is 2.36e-05.

As for chain 1 PSDEGALEDQLYLALR [chain 1 L8E], the screen value is 0.

With chain 1 PSDEGALKDQLYLALR [chain 1 L8K], the screen value was found to be 0.

In the case of chain 1 PSDEGALSDQLYLALR [chain 1 L8S], the screen value stood at 0.

chain 1 PSDEGALADQLYLALR [chain 1 L8A]: the screen value stood at 0.

Consider chain 1 PSDEGALQDQLYLALR [chain 1 L8Q], for which the screen value amounted to 0.

For the variant chain 1 PSDEGALHDQLYLALR [chain 1 L8H], the screen value amounted to 0.

As for chain 1 PSDEGALNDQLYLALR [chain 1 L8N], the screen value is 0.

Consider chain 1 PSDETALLDQLYLALR [chain 1 G5T], for which the screen value is 0.

On to chain 1 PSDEIALLDQLYLALR [chain 1 G5I], for which the screen value turned out to be 4.53e-05.

As for chain 1 PSDENALLDQLYLALR [chain 1 G5N], the screen value turned out to be 0.

For chain 1 PSDEAALLDQLYLALR [chain 1 G5A], the screen value stood at 5.46e-06.

Turning to chain 1 PSDESALLDQLYLALR [chain 1 G5S], the screen value stood at 1.04e-05.

Take chain 1 PSDFGALLDQLYLALR [chain 1 E4F]: the screen value came out at 0.

Turning to chain 1 PSDPGALLDQLYLALR [chain 1 E4P], the screen value came to 0.

For the variant chain 1 PSDEGAQLDQLYLALR [chain 1 L7Q], the screen value was 0.

Take chain 1 PSDEGATLDQLYLALR [chain 1 L7T]: the screen value came out at 0.

For the variant chain 1 PSDEGASLDQLYLALR [chain 1 L7S], the screen value was determined as 0.

Variants of B3 are the subject of another assay. As to conditions: with NSP3 SUD-M (ORF1ab Nsp3c SUD-M, residues 1356-1493); bait immobilised on MaxiSorp plates (10 µg), library pre-cleared on GST, 2 h binding at 4 °C, five washes; one round per day, days 1-4; value from days 2 and 3; keep out of graded; scale: average fractional NGS count over selection days 2 and 3.
Turning to chain 1 DPMAELEQLPGSASDY [chain 1 L10P], the screen value was determined as 0.

With chain 1 DPMLELEQLLGSASDY [chain 1 A4L], the screen value worked out at 0.

As for chain 1 DPMAELEQNLGSASDY [chain 1 L9N], the screen value was found to be 0.
